# Assay results published in paper PMC8529511.
# Molecular target: Trypsin (UniProt P00761)
# Assay: enzyme inhibition assay
row,Substance,Ki [pM]
1,"C12-EETI-II (lauroyl, C12:0, fatty acylated EETI-II) (peptide)",102
2,"C14-EETI-II (myristoyl, C14:0, fatty acylated EETI-II) (peptide)",100
3,"C16-EETI-II (palmitoyl, C16:0, fatty acylated EETI-II) (peptide)",132
4,"C18-EETI-II (stearoyl, C18:0, fatty acylated EETI-II; octadecanedioic acid conjugate) (peptide)",125
